We go through four proteins from PMC7435863, “Single Residue Substitution at N-Terminal Affects Temperature Stability and Activity of L2 Lipase” (Molecules, 2020).

First the molecules themselves.
B1: wt-L2 lipase (Bacillus sp. L2) (protein)
chain: ASLRANDAPIVLLHGFTGWGREEMFGFKYWGGVRGDIEQWLNDNGYRTYTLAVGPLSSNWDRACEAYAQLVGGTVDYGAAHAAKHGHARFGRTYPGLLPELKRGGRIHIIAHSQGGQTARMLVSLLENGSQEEREYAKAHNVSLSPLFEGGHHFVLSVTTIATPHDGTTLVNMVDFTDRFFDLQKAVLEAAAVASNVPYTSQVYDFKLDQWGLRRQPGESFDHYFERLKRSPVWTSTDTARYDLSVSGAEKLNQWVQASPNTYYLSFSTERTYRGALTGNHYPELGMNAFSAVVCAPFLGSYRNPTLGIDDRWLENDGIVNTVSMNGPKRGSSDRIVPYDGTLKKGVWNDMGTYNVDHLEIIGVDPNPSFDIRAFYLRLAEQLASLLP
notes: recombinant from pET32(B)+ in E. coli BL21(DE3), Ni Sepharose purified
B2: wt-L2 lipase (Bacillus sp. L2; A36P) (protein)
chain: B1 chain with A8P
notes: as for B1
B3: wt-L2 lipase (Bacillus sp. L2; A36V) (protein)
chain: B1 chain with A8V
notes: as for B1
B4: wt-L2 lipase (Bacillus sp. L2; A36E) (protein)
chain: B1 chain with A8E
notes: as for B1

Numbering of substitutions follows the chain as printed. Numbers in names are those of the source.

One may read the Km as the substrate concentration at which the rate is half of its maximum. The term kcat denotes the number of substrate molecules converted per active site and unit of time at saturation. Broadly, the kcat/Km is the turnover number divided by the Michaelis constant. What is called Vmax is the rate approached at saturating substrate.

Substrate in the series: CCCCCCCCCC(=O)Oc1ccc([N+](=O)[O-])cc1
Nature of the series: pNP ester hydrolysis, Lineweaver-Burk. It counts as biochemical, Bacillus sp. L2. Conditions: 70 °C (optimum temperature), 0.6-5.0 mM substrate. The text has this:
pNP ester hydrolysis, Lineweaver-Burk on wt-L2 lipase
As to B1, the Km turned out to be 1080 µM, the kcat is 175 s⁻¹ and the kcat/Km came to 162000 M⁻¹ s⁻¹.
For the protein B2, the Km was determined as 1340 µM, the Vmax turned out to be 76300 µM/min, the kcat came out at 127 s⁻¹ and the kcat/Km stood at 94900 M⁻¹ s⁻¹.
Turning to B3, the Km was determined as 520 µM, the Vmax came out at 81300 µM/min, the kcat was 136 s⁻¹ and the kcat/Km was 207000 M⁻¹ s⁻¹.
For B4 the same measures were 4380 µM, 71900 µM/min, 120 s⁻¹ and 27200 M⁻¹ s⁻¹.
